In article PMC13342644, “Structural basis for transport and inhibition of nucleotide sugar transport in pathogenic fungi” (Nature Communications, 2026):

Columns and labels:
[1] = target: T1, Avi-tagged, biotinylated GDP-mannose transporter Vrg4 from Candida albicans (Candida albicans (SC5314 entry Q5A477), UniProt Q5A477); test: ELISA; settings: both partners purified
T1 construct: also called biotinylated CaVrg4; source: S. cerevisiae strain BJ5460, purified as the untagged version, biotinylated using BirA ligase; not shown: Avi tag, C-terminal, kept

[2] = target: GDP-mannose transporter Vrg4 from Candida albicans (Candida albicans, UniProt Q5A477)
GDP-mannose transporter Vrg4 from Candida albicans, sequence (Q5A477 34-371): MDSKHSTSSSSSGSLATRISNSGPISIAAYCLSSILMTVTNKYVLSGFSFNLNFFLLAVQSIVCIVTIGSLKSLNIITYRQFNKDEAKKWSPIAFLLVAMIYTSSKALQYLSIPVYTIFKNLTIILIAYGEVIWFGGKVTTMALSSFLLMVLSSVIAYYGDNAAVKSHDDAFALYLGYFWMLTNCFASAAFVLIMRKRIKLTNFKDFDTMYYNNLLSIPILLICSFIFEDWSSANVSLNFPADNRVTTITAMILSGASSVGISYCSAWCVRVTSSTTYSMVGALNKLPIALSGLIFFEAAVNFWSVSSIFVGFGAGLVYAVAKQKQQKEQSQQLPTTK

T1 sequence (Q5A477 34-371, one chain of several): as the sequence (Q5A477 34-371) above

Binder	Kd [1] [nM]	Kd [2] [nM]
nanobody NB4 (VHH, not shown: Myc, C-terminal, kept; His, C-terminal, kept) VHH: QVQLVESGGGLVQAGGSLRLSCAASGRTFRSYTLGWFRQAPGKEREFVAAIKWSTDTTYYADSVKGRFTISGDNAKNTVYLQMNSLKPEDTAVYFCAARSLSTVIAGPEIPWPYNSWGQGTQVTVSS	~10	
NB1 (VHH) VHH: QVQLVESGGGLVQPGGSLRLSCAASGTSFTINVMAWYRQAPGKQRELVAGITSGGTTNYADAVKGRFAITSDNAKNTVYLQMNGLKSEDTAVYYCNAATTVPYPDYGFSLGTYDYEAWGQGTQVTVSS		109
NB2 (VHH) VHH: QVQLVESGGGLVQPGGSLRLSCAASRIKRNIMSMGWYRQAPGKQRELVATLLRGGVTNYADSVKGRFTISRDNAKNTLYLQMNSLKPEDTAVYYCTLKEQMFDTTYWGQGTQVTVSS		125
nanobody NB3 (VHH, not shown: Myc, C-terminal, kept; His, C-terminal, kept) VHH: QVQLVESGGGLVQPGGSLRLSCAASGSISEINVMGWYRQAPGKQRELVARITTGGSTNYADSVKGRFTISRDNAKNTVYLQMNSLKPEDTAVYMCNAHRRVVMEWGPLGYDYWGQGTQVTVSS	~3	
